These results are taken from the supplement of paper PMC5998384.

For data set [1], the system named is HeLa Kyoto. The experiment in a line: solubility in G1/S (NP-40 vs SDS abundance) (log2 ratio); higher = more soluble. The note with it: cell cycle stage: G1/S.
In data set [2] the test system is HeLa Kyoto. The experiment in a line: solubility change mitosis vs G1/S (difference of NP-40 vs SDS log2 ratios) (log2 ratio difference); higher = more soluble in mitosis.
For data set [3], the system named is HeLa Kyoto. As to the kind of experiment: melting temperature (median over replicates), in situ; higher = more thermally stable.
For data set [4], the system named is HeLa Kyoto. As to the kind of experiment: thermal stability score vs G1/S (z-score of summed log2 fold changes over temperatures); higher = more thermally stable than in G1/S.
[5] abbreviates: cell cycle stage: early G1 (4.5 h after nocodazole release).
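Wherever melting temperature (median over replicates), in situ is given: HeLa Kyoto cells synchronized by double thymidine or nocodazole block, proteins quantified by TMT10plex mass spectrometry, three independent biological replicates.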
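Wherever solubility change mitosis vs G1/S (difference of NP-40 vs SDS log2 ratios) is given: synchronized HeLa Kyoto cells (double thymidine block for G1/S, nocodazole release for mitosis), protein amounts in NP-40 versus SDS lysates quantified by mass spectrometry, three biological replicates.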
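Wherever solubility in G1/S (NP-40 vs SDS abundance) is given: HeLa Kyoto cells arrested at G1/S by double thymidine block, proteins quantified by TMT10plex mass spectrometry in mild NP-40 versus SDS extracts, three biological replicates.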
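Wherever thermal stability score vs G1/S (z-score of summed log2 fold changes over temperatures) is given: synchronized HeLa Kyoto cells, proteins quantified by TMT10plex mass spectrometry, three biological replicates, mitosis taken 0.5 h after nocodazole release, G1/S directly after double thymidine block.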

Turning to “MSGDSSGRGPEGRGRGRDPHRDRTRSRSRSRSPLSPRSRRGSARERREAPERPSLEDTEPSDSGDEMMDPASLEAEADQGLCRQIRHQYRALINSVQQNREDILNAGDKLTEVLEEANTLFNEVSRAREAVLDAHFLVLASDLGKEKAKQLRSDLSSFDMLRYVETLLTHMGVNPLEAEELIRDEDSPDFEFIVYDSWKITGRTAENTFNKTHTFHFLLGSIYGECPVPKPRVDRPRKVPVIQEERAMPAQLRRMEESHQEATEKEVERILGLLQTYFREDPDTPMSFFDFVVDPHSFPRTVENIFHVSFIIRDGFARIRLDQDRLPVIEPVSINEENEGFEHNTQVRNQGIIALSYRDWEEIVKTFEISEPVITPSQRQQKPSA [NSMCE4A]”, the “solubility in G1/S (log2)” value in the data set with HeLa Kyoto [1] was 0.182. In the data set on HeLa Kyoto [2], the “solubility change mitosis (log2)” value was 0.00196. Also, the melting temperature with HeLa Kyoto [3] (cell cycle stage: G1/S) was 49.9 °C; with HeLa Kyoto [3] (cell cycle stage: mitosis), 50.2 °C. Also, the figures for the thermal stability score in the data set with HeLa Kyoto [4] (setting [5]) and in the data set on HeLa Kyoto [4] (cell cycle stage: mitosis) were -2.46 and -1.49, respectively.

Regarding “MGKVNVAKLRYMSRDDFRVLTAVEMGMKNHEIVPGSLIASIASLKHGGCNKVLRELVKHKLIAWERTKTVQGYRLTNAGYDYLALKTLSSRQVVESVGNQMGVGKESDIYIVANEEGQQFALKLHRLGRTSFRNLKNKRDYHKHRHNVSWLYLSRLSAMKEFAYMKALYERKFPVPKPIDYNRHAVVMELINGYPLCQIHHVEDPASVYDEAMELIVKLANHGLIHGDFNEFNLILDESDHITMIDFPQMVSTSHPNAEWYFDRDVKCIKDFFMKRFSYESELFPTFKDIRREDTLDVEVSASGYTKEMQADDELLHPLGPDDKNIETKEGSEFSFSDGEVAEKAEVYGSENESERNCLEESEGCYCRSSGDPEQIKEDSLSEESADARSFEMTEFNQALEEIKGQVVENNSVTEFSEEKNRTENYNRQDGQRVQGGVPAGSDEYEDECPHLIALSSLNREFRPFRDEENVGAMNQYRTRTLSITSSGSAVSCSTIPPELVKQKVKRQLTKQQKSAVRRRLQKGEANIFTKQRRENMQNIKSSLEAASFWGE [RIOK2]”, the “solubility in G1/S (log2)” value with HeLa Kyoto [1] was -0.263. Besides, in the data set on HeLa Kyoto [2], the “solubility change mitosis (log2)” value was -0.21. The melting temperature in the data set on HeLa Kyoto [3] (cell cycle stage: G1/S) turned out to be 52.5 °C; in the data set with HeLa Kyoto [3] (cell cycle stage: mitosis), 52 °C. Further, the thermal stability score in the data set on HeLa Kyoto [4] (setting [5]) was -0.571; in the data set on HeLa Kyoto [4] (cell cycle stage: mitosis), -0.171.

On to “MEVAANCSLRVKRPLLDPRFEGYKLSLEPLPCYQLELDAAVAEVKLRDDQYTLEHMHAFGMYNYLHCDSWYQDSVYYIDTLGRIMNLTVMLDTALGKPREVFRLPTDLTACDNRLCASIHFSSSTWVTLSDGTGRLYVIGTGERGNSASEKWEIMFNEELGDPFIIIHSISLLNAEEHSIATLLLRIEKEELDMKGSGFYVSLEWVTISKKNQDNKKYEIIKRDILRGKSVPHYAAIEPDGNGLMIVSYKSLTFVQAGQDLEENMDEDISEKIKEPLYYWQQTEDDLTVTIRLPEDSTKEDIQIQFLPDHINIVLKDHQFLEGKLYSSIDHESSTWIIKESNSLEISLIKKNEGLTWPELVIGDKQGELIRDSAQCAAIAERLMHLTSEELNPNPDKEKPPCNAQELEECDIFFEESSSLCRFDGNTLKTTHVVNLGSNQYLFSVIVDPKEMPCFCLRHDVDALLWQPHSSKQDDMWEHIATFNALGYVQASKRDKKFFACAPNYSYAALCECLRRVFIYRQPAPMSTVLYNRKEGRQVGQVAKQQVASLETNDPILGFQATNERLFVLTTKNLFLIKVNTEN [NUDCD1]”, for which, in the data set with HeLa Kyoto [1], the “solubility in G1/S (log2)” value was -0.0356. The “solubility change mitosis (log2)” value in the data set with HeLa Kyoto [2] was -0.234. Besides, the values for the melting temperature with HeLa Kyoto [3] (cell cycle stage: G1/S) and in the data set on HeLa Kyoto [3] (cell cycle stage: mitosis) were 51.5 °C and 52.4 °C, respectively. Besides, the thermal stability score in the data set with HeLa Kyoto [4] (setting [5]) was 0.569; in the data set on HeLa Kyoto [4] (cell cycle stage: mitosis) it was 0.543.

Consider “MADQPKPISPLKNLLAGGFGGVCLVFVGHPLDTVKVRLQTQPPSLPGQPPMYSGTFDCFRKTLFREGITGLYRGMAAPIIGVTPMFAVCFFGFGLGKKLQQKHPEDVLSYPQLFAAGMLSGVFTTGIMTPGERIKCLLQIQASSGESKYTGTLDCAKKLYQEFGIRGIYKGTVLTLMRDVPASGMYFMTYEWLKNIFTPEGKRVSELSAPRILVAGGIAGIFNWAVAIPPDVLKSRFQTAPPGKYPNGFRDVLRELIRDEGVTSLYKGFNAVMIRAFPANAACFLGFEVAMKFLNWATPNL [SLC25A20]”, for which the “solubility in G1/S (log2)” value in the data set on HeLa Kyoto [1] was -0.0167. Besides, the “solubility change mitosis (log2)” value in the data set with HeLa Kyoto [2] was -0.108. Also, the melting temperature in the data set on HeLa Kyoto [3] (cell cycle stage: G1/S) came out at 58 °C; with HeLa Kyoto [3] (cell cycle stage: mitosis) it was 56.7 °C. Also, the figures for the thermal stability score in the data set on HeLa Kyoto [4] (setting [5]) and in the data set on HeLa Kyoto [4] (cell cycle stage: mitosis) were -1.89 and -0.401, respectively.

For KIF21A, in the data set on HeLa Kyoto [1], the “solubility in G1/S (log2)” value was -0.0549. Further, in the data set on HeLa Kyoto [2], the “solubility change mitosis (log2)” value is -0.0922. Further, the figures for the melting temperature in the data set on HeLa Kyoto [3] (cell cycle stage: G1/S) and in the data set on HeLa Kyoto [3] (cell cycle stage: mitosis) were 49.5 °C and 50.3 °C, respectively. Further, the thermal stability score in the data set on HeLa Kyoto [4] (setting [5]) was -1.01; in the data set with HeLa Kyoto [4] (cell cycle stage: mitosis), 0.181.
